Laboratory results reported in patent publication US7271143B1, “Peptides for regulation of urokinase (uPA) and tissue type (tPA) plasminogen activator and method of optimizing therapeutic efficacy” (Thrombotech Ltd., priority 2001, dated 2007).
Where two headings read alike, the source gives them in different places.

Columns and labels:
[1] = system: isolated rat aorta rings; assay: PE-induced contraction of isolated rat aorta rings; format: cell-based
Method: FIG. 1A is a diagram describing the results of experiments on the effect of tPA on PE-induced contraction of isolated rat aorta rings. Contraction of aortic rings was induced by increasing the concentrations of phenylephrine (PE), in the absence of tPA (full triangles) or in the presence of 1 nM (filled squares) or 20 nM tPA (empty squares).
FIG. 1B describes the results of experiments in which the contraction of aortic rings was induced in the absence of TNK-tPA (filled triangles), in the presence of 1 nM tPA (filled squares) or 20 nM tPA (empty squares).
FIG. 4 is a graph describing the effect of tPA on phenylepbrine-induced contraction of isolated rat aorta rings in vitro. The contraction of the aorta rings was induced by varying concentrations of phenylephrine in the absence of tPA (filled triangles), in the presence of 1 nM of TA (filled squares) or in the presence of 10 nM tPA (empty squares). The experiments were performed according to procedures described earlier by Haj-Yehia A et al., FASEB J, 2000, 14:1411–1422.
The effect of TNK-tPA on PE-induced contraction was compared with the effect of tPA, in the isolated aorta rings. […]

[2] = cited from earlier work
[3] = biological target: plasminogen activator inhibitor-1 (PAI-1) (Homo sapiens, UniProt P05121); conditions: higher than tPA; cited from earlier work
[4] = biological target: T1, fibrin (Homo sapiens, UniProt P02671+P02675+P02679); conditions: greater than tPA; cited from earlier work
T1 sequence (P02671 20-644 isoform P02671-2 limits assumed): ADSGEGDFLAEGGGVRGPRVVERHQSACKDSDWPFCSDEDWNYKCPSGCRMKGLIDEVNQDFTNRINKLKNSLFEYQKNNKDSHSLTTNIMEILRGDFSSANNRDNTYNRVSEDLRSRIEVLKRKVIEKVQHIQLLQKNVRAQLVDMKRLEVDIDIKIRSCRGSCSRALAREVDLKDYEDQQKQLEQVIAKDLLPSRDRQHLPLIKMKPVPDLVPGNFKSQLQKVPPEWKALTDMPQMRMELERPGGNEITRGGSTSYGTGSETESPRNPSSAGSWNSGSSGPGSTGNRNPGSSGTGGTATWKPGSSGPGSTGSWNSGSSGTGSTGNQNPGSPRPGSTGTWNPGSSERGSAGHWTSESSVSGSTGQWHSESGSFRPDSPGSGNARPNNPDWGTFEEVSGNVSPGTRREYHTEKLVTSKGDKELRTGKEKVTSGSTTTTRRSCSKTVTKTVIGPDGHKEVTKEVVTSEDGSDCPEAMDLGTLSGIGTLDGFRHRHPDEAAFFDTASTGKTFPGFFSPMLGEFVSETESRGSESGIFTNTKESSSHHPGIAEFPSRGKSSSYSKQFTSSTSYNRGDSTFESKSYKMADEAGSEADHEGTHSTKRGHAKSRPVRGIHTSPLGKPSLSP
T1 sequence (P02675 45-491 limits assumed): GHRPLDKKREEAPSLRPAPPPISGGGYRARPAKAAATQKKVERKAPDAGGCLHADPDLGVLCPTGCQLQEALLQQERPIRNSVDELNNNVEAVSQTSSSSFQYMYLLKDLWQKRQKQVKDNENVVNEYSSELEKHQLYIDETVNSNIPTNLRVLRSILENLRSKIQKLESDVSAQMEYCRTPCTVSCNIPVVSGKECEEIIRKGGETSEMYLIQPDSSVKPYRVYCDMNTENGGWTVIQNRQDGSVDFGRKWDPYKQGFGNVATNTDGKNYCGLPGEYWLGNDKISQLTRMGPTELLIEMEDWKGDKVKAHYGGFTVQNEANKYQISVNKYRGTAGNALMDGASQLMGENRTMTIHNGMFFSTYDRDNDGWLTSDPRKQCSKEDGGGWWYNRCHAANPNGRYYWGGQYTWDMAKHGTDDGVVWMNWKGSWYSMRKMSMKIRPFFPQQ
T1 sequence (P02679 27-437 isoform P02679-2 limits assumed): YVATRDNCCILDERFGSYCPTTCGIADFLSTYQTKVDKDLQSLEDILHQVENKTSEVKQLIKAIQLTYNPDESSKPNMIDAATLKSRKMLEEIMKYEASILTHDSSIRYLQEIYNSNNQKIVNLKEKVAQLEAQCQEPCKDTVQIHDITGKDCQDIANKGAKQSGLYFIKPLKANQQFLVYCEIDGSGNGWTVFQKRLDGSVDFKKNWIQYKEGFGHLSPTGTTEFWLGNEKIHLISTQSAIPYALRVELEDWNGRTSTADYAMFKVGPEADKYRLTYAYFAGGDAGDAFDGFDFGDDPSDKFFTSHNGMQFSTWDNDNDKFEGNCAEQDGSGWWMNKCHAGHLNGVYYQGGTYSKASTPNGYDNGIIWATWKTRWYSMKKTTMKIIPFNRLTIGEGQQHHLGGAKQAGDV

[5] = in vitro, cited from earlier work
[6] = rabbits, arterial venous shunt; cited from earlier work

plasminogen activator inhibitor-1 (PAI-1), sequence (P05121 24-402, species assumed): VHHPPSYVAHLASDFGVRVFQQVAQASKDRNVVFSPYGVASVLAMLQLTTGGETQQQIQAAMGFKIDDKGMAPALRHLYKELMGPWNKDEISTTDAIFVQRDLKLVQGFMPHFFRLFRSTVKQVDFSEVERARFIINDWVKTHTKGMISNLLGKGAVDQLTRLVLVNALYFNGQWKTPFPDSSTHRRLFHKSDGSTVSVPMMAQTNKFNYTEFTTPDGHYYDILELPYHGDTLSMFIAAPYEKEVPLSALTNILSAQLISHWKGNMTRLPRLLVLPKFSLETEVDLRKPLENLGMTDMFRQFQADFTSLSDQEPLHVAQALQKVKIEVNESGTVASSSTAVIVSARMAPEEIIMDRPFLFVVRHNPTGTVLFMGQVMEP

B1: TNK-tPA: bioengineered variant of tissue-type plasminogen activator with tetra-alanine substitution in the protease domain (protein)
chain: SYQVICRDEKTQMIYQQHQSWLRPVLRSNRVEYCWCNSGRAQCHSVPVKSCSEPRCFNGGTCQQALYFSDFVCQCPEGFAGKCCEIDTRATCYEDQGISYRGTWSTAESGAECTNWNSSALAQKPYSGRRPDAIRLGLGNHNYCRNPDRDSKPWCYVFKAGKYSSEFCSTPACSEGNSDCYFGNGSAYRGTHSLTESGASCLPWNSMILIGKVYTAQNPSAQALGLGKHNYCRNPDGDAKPWCHVLKNRRLTWEYCDVPSCSTCGLRQYSQPQFRIKGGLFADIASHPWQAAIFAAAAASPGERFLCGGILISSCWILSAAHCFQERFPPHHLTVILGRTYRVVPGEEEQKFEVEKYIVHKEFDDDTYDNDIALLQLKSDSSRCAQESSVVRTVCLPPADLQLPDWTECELSGYGKHEALSPFYSERLKEAHVRLYPSSRCTSQHLLNRTVTDNMLCAGDTRSGGPQANLHDACQGDSGGPLVCLNDGRMTLVGIISWGLGCGQKDVPGVYTKVTNYLDWIRDNMRP
effect on PE-induced vasoconstriction ([1]; 1 nM): stimulated | effect on PE-induced vasoconstriction ([1]; 20 nM): increased its stimulatory effect | efficacy compared with rtPA ([2]; comparative clinical trials): equivalent efficacy | non-cerebral bleeding episodes ([2]; in vivo): 4.66% | rate of intracranial hemorrhage compared with rtPA ([2]; in vivo): similar | resistance to PAI-1 relative to tPA [3]: 80 fold | relative fibrin specificity [4]: 14 fold | potency relative to tPA ([5]; platelet-enriched clots): 13 fold | potency relative to tPA ([5]; whole blood clots): 8 fold | time required for 50% lysis relative to rtPA [6]: one third
